From paper PMC4066767, “Distinct nucleic acid interaction properties of HIV-1 nucleocapsid protein precursor NCp15 explain reduced viral infectivity”

Key:
[1] = molecular target: NCp9 (p7 + SP2) (HIV-1) (UniProt P12493); test: fluorescence anisotropy
[2] = molecular target: NCp7 (mature nucleocapsid) (HIV-1) (UniProt P12493); test: fluorescence anisotropy
[3] = molecular target: NCp15 (p9 + p6) (HIV-1) (UniProt P12493); test: fluorescence anisotropy
[4] = molecular target: NCp7 (mature nucleocapsid) (HIV-1, UniProt P12493 378-432); test: fluorescence anisotropy salt titration; Kd extrapolated to 1 M NaCl; Zeff 3.0 ± 0.3; details: protein: recombinant; tags: none (Trx tag removed by TEV); label: 5' FAM; single strand
[5] = molecular target: NCp9 (p7 + SP2) (HIV-1, UniProt P12493 378-448); test: fluorescence anisotropy salt titration; Kd extrapolated to 1 M NaCl; Zeff 4.3 ± 0.7; details: protein: recombinant; tags: none (Trx tag removed by TEV); label: 5' FAM; single strand
[6] = molecular target: NCp15 (p9 + p6) (HIV-1, UniProt P12493 378-500); test: fluorescence anisotropy salt titration; Kd extrapolated to 1 M NaCl; Zeff 3.8 ± 0.7; details: protein: recombinant; tags: none (Trx tag removed by TEV); label: 5' FAM; single strand

shortPBS RNA (105 nt)
Kd [1]: 0.24 µM | Kd [2]: 0.231 µM | Kd [3]: 0.278 µM

ACTGGACCAAATTCTAATGTGTGTGTACGAAGCATAGCGG (ssDNA) [40-nt ssDNA]
Kd [4]: 23 µM | Kd [5]: 92 µM | Kd [6]: 78 µM
